Patent US20220324943A1 (UNIVERSITY OF FLORIDA RESEARCH FOUNDATION, published 2022)

Columns and labels:
acidic FGF = molecular target: T1, acidic FGF (UniProt P05230 16-155, limits assumed); test: SPR, FGFR1-CCD injected over immobilized ligand
T1 construct: also called acidic FGF ligand
Procedure: Using a surface plasmon resonance (SPR) technique, the binding kinetics of FGFR1 was measured with two ligands, basic FGF and acidic FGF. A null FGFR1 ligand, vascular endothelial growth factor A (VEGFA), was used as a control. In SPR experiments, the binding of a molecule in the soluble phase (e.g. the peptide of the fusion protein) to a ligand molecule immobilized on a sensor surface is directly measured as a reflected light signal (SPR signal) in a biosensor device. The sensor device may contain an LED-emitting near infrared light, a glass prism fixed to a sensor microchip, and a position-sensitive diode array detector. Binding events cause changes in the refractive index at the surface layer, which are detected as changes in the SPR signal. Specifically, a signal arises when incident LED light is totally internally reflected from the metal-coated interface between two media of different refractive indices (the glass prism and solution). When the incident light is focused on the surface in a wedge, the drop in intensity at the resonance angle appears as a “shadow” in the reflected light wedge, which is detected by the detector. […]
This sensorgram consists of two phases: (Left) In the association phase, the FGFR1-CCD was injected over immobilized ligands on the surface. […] Binding kinetics, including the value of KD, the dissociation constant, can be calculated from the sensorgram.

[1] = molecular target: T2, amyloid beta peptide (Aβ) (UniProt P05067 672-713); test: ELISA on plates coated with Aβ42 peptide, detection with anti-FLAG M2 HRP ('Ab9 scFv activity, Aβ42 ELISA')
T2 construct: also called Aβ9; Aβ9 ligand
T2 sequence (P05067 672-713): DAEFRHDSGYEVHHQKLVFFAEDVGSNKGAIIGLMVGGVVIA
Procedure: An ELISA-based assay was performed to assess Aβ9 scFv activity. 96-well plates were coated with Aβ42 peptide, and 293T conditioned media (containing the GBA-CCD and GBA-CCD-Aβ9 scFv proteins) and cell lysate were then added and incubated for 6 hours. ELISA was developed with anti-FLAG M2 HRP. (See FIG. 23.)

T1 sequence (P05230 16-155 limits assumed): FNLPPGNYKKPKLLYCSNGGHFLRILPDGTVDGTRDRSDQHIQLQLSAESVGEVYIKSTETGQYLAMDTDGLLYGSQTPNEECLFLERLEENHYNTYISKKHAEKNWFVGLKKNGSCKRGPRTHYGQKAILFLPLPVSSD

Row | Binder | Kd (acidic FGF) [pM] | binding result [1]
1 | FGFR1-CCD fusion protein (receptor, CCD fusions are said to form multimers (trimers, hexamers); It was expressed in cells, isolated and purified; also called Fibroblast growth factor receptor 1 (hsFGFR1) CCD fusion) RPSPTLPEQAQPWGAPVEVESFLVHPGDLLQLRCRLRDDVQSINWLRDGVQLAESNRTRITGEEVEVQDSVPADSGLYACVTSSPSGSDTTYFSVNVSDALPSSEDDDDDDDSSSEEKETDNTKPNPVAPYWTSPEKMEKKLHAVPAAKTVKFKCPSSGTPNPTLRWLKNGKEFKPDHRIGGYKVRYATGSIIMDSVVPSDKGNYTCIVENEYGSINHTYQLDVVERSPHRPILQAGLPANKTVALGSNVEFMCKVYSDPQPHIQWLKHIEVNGSKIGPDNLPYVQILKTAGVNTTDKEMEVLHLRNVSFEDAGEYTCLAGNSIGLSHHSAWLTVLEALEERPAVMLKEFMGYQGPPGPPGPPGIPGNHGNNGNNGATGHEGAKGEKGDKGDLGPRGERGQHGPKGEKGYPGIPGYCGPPGPPGPPGIPGNHGNNGNNGATGHEGAKGEKGDKGDLGPRGERGQHGPKGEKGYPGIPDYKDDDDKLQISSTVAAAHHHHHHV | < 1 | –
2 | GBA_AB9 (scFv, fusion of glucocerebrosidase, CCD and Aβ9 scFv; tested as conditioned media and as protein purified from media and lysate; also called hGBA-CCD-Aβ9 scFv; GBA-CCD-antiAβ9 scFv fusion protein) fusion protein monomer: ARPCIPKSFGYSSVVCVCNATYCDSFDPPTFPALGTFSRYESTRSGRRMELSMGPIQANHTGTGLLLTLQPEQKFQKVKGFGGAMTDAAALNILALSPPAQNLLLKSYFSEEGIGYNIIRVPMASCDFSIRTYTYADTPDDFQLHNFSLPEEDTKLKIPLIHRALQLAQRPVSLLASPWTSPTWLKTNGAVNGKGSLKGQPGDIYHQTWARYFVKFLDAYAEHKLQFWAVTAENEPSAGLLSGYPFQCLGFTPEHQRDFIARDLGPTLANSTHHNVRLLMLDDQRLLLPHWAKVVLTDPEAAKYVHGIAVHWYLDFLAPAKATLGETHRLFPNTMLFASEACVGSKFWEQSVRLGSWDRGMQYSHSIITNLLYHVVGWTDWNLALNPEGGPNWVRNFVDSPIIVDITKDTFYKQPMFYHLGHFSKFIPEGSQRVGLVASQKNDLDAVALMHPDGSAVVVVLNRSSKDVPLTIKDPAVGFLETISPGYSIHTYLWRRQLKEFMGYQGPPGPPGPPGIPGNHGNNGNNGATGHEGAKGEKGDKGDLGPRGERGQHGPKGEKGYPGIPGYCGPPGPPGPPGIPGNHGNNGNNGATGHEGAKGEKGDKGDLGPRGERGQHGPKGEKGYPGIPDYKDDDDKLQISGGGGSGGGGSQVTLKESGPGILQPSQTLSLTCSFSGFSLNTFGMGVSWIRQPSGKGLEWLAHIFWDDDKHYNPSLKSRLTISKDTSNNQVFLKITTVDTADTATYYCVRYGFDGFPYWGQGTLVTVSAGGGGSGGGGSGGGGSDVVMTQTPLSLPVSLGDQASISCRSNQSLVHSNGNTYLHWYLQKPGQSPKLLIYKVSNRFSGVPDRFSGSGSGTDFTLKISRVEAEDLGFYFCSQSTRVPWTFGGGTKLELKRAAAHHHHHHV | – | binds
